Source: patent US20230212319A1, “NOVEL ANTIGEN BINDING DOMAINS AND SYNTHETIC ANTIGEN RECEPTORS INCORPORATING THE SAME” (University of Southern California, priority 2020, published 2023)
Positions count from the first letter of the chain named.

B1: 4088 (protein)
chain: MALPVTALLLPLALLLHAARPDIQMTQSPSSLSASVGDRVTITCKASDHINNWLAWYQQKPGQAPKLLIYGATTLETGVPSRFSGSGSGTDYTLTISSLQPEDFATYYCQQSWNTPWTFGQGTKLEIKRLEIQNPDPAVYQLRDSKSSDKSVCLFTDFDSQTNVSQSKDSDVYITDKCVLDMRSMDFKSNSAVAWSNKSDFACANAFNNSIIPEDTFFPSSDVPCDVKLVEKSFETDTNLNFQNLSVIGFRILLLKVAGFNLLMTLRLWSSRAKRSGSGVKQTLNFDLLKLAGDVESNPGPTSMDWIWRILFLVGAATGAHSGPQVQLQESGGGLAQAGGSLRLSCAASGRTFSMGWFRQAPGKEREFVAAITYSGGSPYYASSVRGRFTISRDNAKNTVYLQMNSLKPEDTAVYYCAANPTYGSDWNAENWGQGTQVTVSSGSGGGGSGGGGSGGGGSFEQVQLQQPGAELVKPGASVKMSCKASGYAFSSYWINWMKQKPGQGLEWIGQIYPGDGDTNYNGKFKGRATLTADTSSSTAYMQLSSLTSEDSAVYFCARSITTVVGCAMDYWGQGTSVTVSSTREDLKNVFPPEVAVFEPSKAEIAHTQKATLVCLATGFYPDHVELSWWVNGKEVHSGVCTDPQPLKEQPALNDSRYCLSSRLRVSATFWQNPRNHFRCQVQFYGLSENDEWTQDRAKPVTQIVSAEAWGRADCGITSASYHQGVLSATILYEILLGKATLYAVLVSALVLMAMVKRKDSRGRAKRSGSGATNFSLLKQAGDVEENPGPSRGHMTEYKPTVRLATRDDVPRAVRTLAAAFADYPATRHTVDPDRHIERVTELQELFLTRVGLDIGKVWVADDGAAVAVWTTPESVEAGAVFAEIGPRMAELSGSRLAAQQQMEGLLAPHRPKEPAWFLATVGVSPDHQGKGLGSAVVLPGVEAAERAGVPAFLETSAPRNLPFYERLGFTVTADVEVPEGPRTWCMTRKPGA
modifications: Synthetic Polynucloetide
B2: 4090 (protein)
chain: MALPVTALLLPLALLLHAARPDIQMTQSPSSLSASVGDRVTITCKASDHINNWLAWYQQKPGQAPKLLIYGATTLETGVPSRFSGSGSGTDYTLTISSLQPEDFATYYCQQSWNTPWTFGQGTKLEIKRLEDLKNVFPPEVAVFEPSEAEISHTQKATLVCLATGFYPDHVELSWWVNGKEVHSGVCTDPQPLKEQPALNDSRYCLSSRLRVSATFWQNPRNHFRCQVQFYGLSENDEWTQDRAKPVTQIVSAEAWGRADCGFTSESYQQGVLSATILYEILLGKATLYAVLVSALVLMAMVKRKDSRGRAKRSGSGATNFSLLKQAGDVEENPGPTSMDWIWRILFLVGAATGAHSGPQVQLQESGGGLAQAGGSLRLSCAASGRTFSMGWFRQAPGKEREFVAAITYSGGSPYYASSVRGRFTISRDNAKNTVYLQMNSLKPEDTAVYYCAANPTYGSDWNAENWGQGTQVTVSSGSGGGGSGGGGSGGGGSFEQVQLQQPGAELVKPGASVKMSCKASGYAFSSYWINWMKQKPGQGLEWIGQIYPGDGDTNYNGKFKGRATLTADTSSSTAYMQLSSLTSEDSAVYFCARSITTVVGCAMDYWGQGTSVTVSSTRIQNPDPAVYQLRDSKSSDKSVCLFTDFDSQTNVSQSKDSDVYITDKCVLDMRSMDFKSNSAVAWSNKSDFACANAFNNSIIPEDTFFPSPESSCDVKLVEKSFETDTNLNFQNLSVIGFRILLLKVAGFNLLMTLRLWSSRAKRSGSGVKQTLNFDLLKLAGDVESNPGPSRGHMTEYKPTVRLATRDDVPRAVRTLAAAFADYPATRHTVDPDRHIERVTELQELFLTRVGLDIGKVWVADDGAAVAVWTTPESVEAGAVFAEIGPRMAELSGSRLAAQQQMEGLLAPHRPKEPAWFLATVGVSPDHQGKGLGSAVVLPGVEAAERAGVPAFLETSAPRNLPFYERLGFTVTADVEVPEGPRTWCMTRKPGA
modifications: Synthetic Polynucloetide
B3: 4089 (protein)
chain: B2 chain with E148K, S152A, F263I, E266A, Q269H, P709S, E710D, S711V, S712P
modifications: Synthetic Polynucloetide
B4: 22292 (protein)
chain: MALPVTALLLPLALLLHAARPACMGSWFEFYDRLNAIDARLWALGGSEAELAAFEKEIAAFESELQAYKGKGNPEVENLRVHAAAIREWLQAYRHNGTGGGGSGGGGSGGGGSEFDIQMTQSPSSLSASVGDRVTITCKASDHINNWLAWYQQKPGQAPKLLIYGATTLETGVPSRFSGSGSGTDYTLTISSLQPEDFATYYCQQSWNTPWTFGQGTKLEIKRLEDLKNVFPPEVAVFEPSEAEISHTQKATLVCLATGFYPDHVELSWWVNGKEVHSGVCTDPQPLKEQPALNDSRYCLSSRLRVSATFWQNPRNHFRCQVQFYGLSENDEWTQDRAKPVTQIVSAEAWGRADCGFTSESYQQGVLSATILYEILLGKATLYAVLVSALVLMAMVKRKDSRGRAKRSGSGATNFSLLKQAGDVEENPGPTSMDWIWRILFLVGAATGAHSFEQVQLQQPGAELVKPGASVKMSCKASGYAFSSYWINWMKQKPGQGLEWIGQIYPGDGDTNYNGKFKGRATLTADTSSSTAYMQLSSLTSEDSAVYFCARSITTVVGCAMDYWGQGTSVTVSSTRIQNPDPAVYQLRDSKSSDKSVCLFTDFDSQTNVSQSKDSDVYITDKCVLDMRSMDFKSNSAVAWSNKSDFACANAFNNSIIPEDTFFPSPESSCDVKLVEKSFETDTNLNFQNLSVIGFRILLLKVAGFNLLMTLRLWSSRAKRSGSGVKQTLNFDLLKLAGDVESNPGPSRGHMTEYKPTVRLATRDDVPRAVRTLAAAFADYPATRHTVDPDRHIERVTELQELFLTRVGLDIGKVWVADDGAAVAVWTTPESVEAGAVFAEIGPRMAELSGSRLAAQQQMEGLLAPHRPKEPAWFLATVGVSPDHQGKGLGSAVVLPGVEAAERAGVPAFLETSAPRNLPFYERLGFTVTADVEVPEGPRTWCMTRKPGA

Key:
DAUDI (CD20+) cells = format: cell-based
RS411 cells = format: cell-based
RAJI cells = test: JNG (Jurkat NFAT-GFP) cells expressing SAR: GFP induction on co-culture with RAJI
L428 cells = test: JNG assay, co-culture with L428 cells; format: cell-based; conditions: L428 in presence of SAR adaptor bc40-p26-CD123-cg06
Description: Cellular supernatant is collected and assayed for the induction of cytokines (e.g., IL2).
JNG (Jurkat cells expressing EGFP under an NFAT promoter) were infected with lentiviral vectors encoding different single chain and multi-chain SARs by spinfection in the presence of 8 µg/ml of Polybrene® (Sigma, Catalog no. H9268). The Jurkat-NFAT-GFP cells are engineered in such a way that the IL-2 promoter, which carries NFAT binding sites, is cloned upstream of the GFP gene. These cells have been used to study signaling via TCR and CAR. The different SARs were stably expressed in Jurkat NFAT-GFP cells by lentiviral mediated gene transfer, followed by selection with puromycin or blasticidin. No drug selection was used in case the construct lacked an antibiotic resistance gene. The SAR-expressing Jurkat-NFAT-GFP cells were cocultured with the target cells at E:T ratio of approximately 1:2 for approximately 4 hours to 18 hours. When the interaction between SIRs and their target antigen results in activation of the NFAT pathway, GFP expression is induced. […] GFP expression was monitored by FACS analysis. The Jurkat-NFAT-GFP (parental) cells were used as control. The structure of different constructs can be determined based on their names. […] The sequence of the other constructs in the table can be similarly determined from their names and by referring to the different Tables of this disclosure that provide the names and SEQ ID NO of the different modules. Alternatively, the composition and modular architecture of the different SAR constructs can be determined from their sequences by bioinformatics tools, including using nucleic acid and amino acids homology searches. […] The signs +/-, +, 2+ etc. after the name of the cell lines indicate the relative degree of positivity on the Jurkat-NFAT-GFP assay as measured by the % GFP positive cells after culture of the SAR expressing Jurkat-NFAT-GFP cells with that cell line above the % GFP cells observed in parental Jurkat NFAT-GFP cells serving as controls. […]

Molecule | GFP induction (JNG-GFP induction assay), DAUDI (DAUDI (CD20+) cells) | GFP induction (JNG-GFP induction assay), RS;411 (RS411 cells) | GFP induction (JNG-GFP induction assay), RAJI WT (RAJI cells) | NFAT-GFP ASSAY: L428 with bc40-p26-CD123-cg06 (L428 cells)
B1 | highly positive | highly positive | positive | 
B2 | highly positive | highly positive | positive | 
B3 | highly positive | highly positive | positive | 
B4 |  |  |  | +3
